The source of these data is publication PMC2267159 (BMC Biology, 2008).

This data set deals with the molecule itself. The data set is described as follows: SDS-PAGE.

On to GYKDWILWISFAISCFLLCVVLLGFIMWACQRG [TMD peptide of HA2 (strain X:31) of influenza virus, unlabeled], for which the binding result was “binds”.
